The source of these data is US20180172684A1.

In test [1] the target is mycoplasma pneumonia P30 (purified protein P30Ag produced by expressing amino acids 96-274 with Escherichia coli) (Mycoplasma pneumoniae) (UniProt P75330). As to the kind of experiment: immunochromatography sandwich (Com. Ex. 8), label P30(a), detection P30(b); analyte P30Ag.
The target in test [2] is P30 protein of Mycoplasma pneumoniae as present in Mycoplasma pneumoniae analytes (deactivated Mycoplasma pneumoniae Antigen (FH), Meridian; pharyngeal swabs of infected subjects) (Mycoplasma pneumoniae) (UniProt P75330). As to the kind of experiment: immunochromatography sandwich (Com. Ex. 7), label P30(b), detection P30(b); deactivated Mycoplasma pneumoniae (FH).
Test [3] has the same target. Description: immunochromatography sandwich (Com. Ex. 6), label P30(a), detection P30(b); pharyngeal swab Subject 2; Triton X-100/Tween 20 diluent.
Test [4] has the same target. Description: immunochromatography sandwich (Com. Ex. 7), label P30(b), detection P30(b); pharyngeal swab Subject 2.
For test [5] the target is unchanged. As to the kind of experiment: immunochromatography sandwich (Com. Ex. 2), label P30(b), detection P30(b); deactivated Mycoplasma pneumoniae (FH).
The target in test [6] is mycoplasma pneumonia P30 (purified protein P30Ag produced by expressing amino acids 96-274 with Escherichia coli) (Mycoplasma pneumoniae) (UniProt P75330). Description: ELISA, P30Ag coated at 4 ng/mL, antibody 5 ug/mL, anti-mouse IgG-peroxidase. Background: ELISA stands for enzyme-linked immunosorbent assay.
Test [7] deals with P30 protein of Mycoplasma pneumoniae as present in Mycoplasma pneumoniae analytes (deactivated Mycoplasma pneumoniae Antigen (FH), Meridian; pharyngeal swabs of infected subjects) (Mycoplasma pneumoniae) (UniProt P75330). Description: immunochromatography sandwich (Com. Ex. 6), label P30(a), detection P30(b); deactivated Mycoplasma pneumoniae (FH); Triton X-100/Tween 20 diluent.

Test [8] deals with mycoplasma pneumonia P30 (purified protein P30Ag produced by expressing amino acids 96-274 with Escherichia coli) (Mycoplasma pneumoniae) (UniProt P75330). As to the kind of experiment: immunochromatography sandwich, P30(b)-gold label and P30(b) detection line, P30Ag 10 pg/mL, no peptide.
The target of test [9] is P30 protein of Mycoplasma pneumoniae as present in Mycoplasma pneumoniae analytes (deactivated Mycoplasma pneumoniae Antigen (FH), Meridian; pharyngeal swabs of infected subjects) (Mycoplasma pneumoniae) (UniProt P75330). Description: immunochromatography sandwich (Com. Ex. 1), label P30(a), detection P30(b); deactivated Mycoplasma pneumoniae (FH).
Test [10] addresses mycoplasma pneumonia P30 (purified protein P30Ag produced by expressing amino acids 96-274 with Escherichia coli) (Mycoplasma pneumoniae) (UniProt P75330). Description: immunochromatography sandwich (Com. Ex. 9), label P30(b), detection P30(b); analyte P30Ag.
For test [11], the target named is full-length protein mycoplasma pneumonia P30 (amino acids 1-274; SEQ ID NO: 1) (Mycoplasma pneumoniae) (UniProt P75330). As to the kind of experiment: ELISA, full-length P30 coated, 5 ug/mL P30(b), no peptide (0 point of the peptide 1 series).
The target of test [12] is P30 protein of Mycoplasma pneumoniae as present in Mycoplasma pneumoniae analytes (deactivated Mycoplasma pneumoniae Antigen (FH), Meridian; pharyngeal swabs of infected subjects) (Mycoplasma pneumoniae) (UniProt P75330). Description: immunochromatography sandwich (Com. Ex. 6), label P30(a), detection P30(b); pharyngeal swab Subject 1; Triton X-100/Tween 20 diluent.
Test [13] has the same target. As to the kind of experiment: immunochromatography sandwich (Com. Ex. 1), label P30(a), detection P30(b); pharyngeal swab Subject 1.
Test [14] shares this target. As to the kind of experiment: immunochromatography sandwich (Com. Ex. 7), label P30(b), detection P30(b); pharyngeal swab Subject 1.
Test [15] has the same target. Description: immunochromatography sandwich (Com. Ex. 1), label P30(a), detection P30(b); pharyngeal swab Subject 2.
Test [16] addresses full-length protein mycoplasma pneumonia P30 (amino acids 1-274; SEQ ID NO: 1) (Mycoplasma pneumoniae) (UniProt P75330). As to the kind of experiment: ELISA, full-length P30 coated, 5 ug/mL P30(b), no peptide (0 point of the peptide 2 series).
In test [17] the target is P30 protein of Mycoplasma pneumoniae as present in Mycoplasma pneumoniae analytes (deactivated Mycoplasma pneumoniae Antigen (FH), Meridian; pharyngeal swabs of infected subjects) (Mycoplasma pneumoniae) (UniProt P75330). As to the kind of experiment: immunochromatography sandwich (Com. Ex. 2), label P30(b), detection P30(b); pharyngeal swab Subject 1.
The target is the same in test [18]. Description: immunochromatography sandwich (Com. Ex. 2), label P30(b), detection P30(b); pharyngeal swab Subject 2.
Test [19] addresses antibody P30(b) (Fucal Research product Mp-P30-9-AB). As to the kind of experiment: competitive inhibition ELISA, full-length P30 coated, 5 ug/mL P30(b) + peptide 1 at x80 the antibody concentration.
The target in test [20] is antibody P30(a) (Fucal Research product Mp-P30-3-AB). Description: competitive inhibition ELISA, full-length P30 coated, 5 ug/mL P30(a) + peptide 1 at x1 the antibody concentration.
Test [21] concerns the target antibody P30(b) (Fucal Research product Mp-P30-9-AB). Description: competitive inhibition ELISA, full-length P30 coated, 5 ug/mL P30(b) + peptide 1 at x320 the antibody concentration.
Test [22] deals with antibody P30(a) (Fucal Research product Mp-P30-3-AB). As to the kind of experiment: immunochromatography competition, 400 ng peptide 1 developed with P30Ag 10 pg/mL, P30(a) label and detection.
Test [23] concerns the target antibody P30(b) (Fucal Research product Mp-P30-9-AB). Description: competitive inhibition ELISA, full-length P30 coated, 5 ug/mL P30(b) + peptide 1 at x40 the antibody concentration.
The target of test [24] is antibody P30(a) (Fucal Research product Mp-P30-3-AB). As to the kind of experiment: competitive inhibition ELISA, full-length P30 coated, 5 ug/mL P30(a) + peptide 1 at x160 the antibody concentration.
Test [25] shares this target. Description: competitive inhibition ELISA, full-length P30 coated, 5 ug/mL P30(a) + peptide 1 at x80 the antibody concentration.
Test [26] has as its target antibody P30(b) (Fucal Research product Mp-P30-9-AB). As to the kind of experiment: competitive inhibition ELISA, full-length P30 coated, 5 ug/mL P30(b) + peptide 1 at x20 the antibody concentration.
Test [27] addresses antibody P30(a) (Fucal Research product Mp-P30-3-AB). As to the kind of experiment: competitive inhibition ELISA, full-length P30 coated, 5 ug/mL P30(a) + peptide 1 at x10 the antibody concentration.
Test [28] shares this target. Description: competitive inhibition ELISA, full-length P30 coated, 5 ug/mL P30(a) + peptide 1 at x20 the antibody concentration.
The target of test [29] is antibody P30(b) (Fucal Research product Mp-P30-9-AB). As to the kind of experiment: competitive inhibition ELISA, full-length P30 coated, 5 ug/mL P30(b) + peptide 1 at x1 the antibody concentration.
The target of test [30] is antibody P30(a) (Fucal Research product Mp-P30-3-AB). Description: competitive inhibition ELISA, full-length P30 coated, 5 ug/mL P30(a) + peptide 1 at x40 the antibody concentration.
The target is the same in test [31]. As to the kind of experiment: competitive inhibition ELISA, full-length P30 coated at 4 ng/mL, 5 ug/mL P30(a) + peptide 1 at 40 times the antibody amount.
The target is the same in test [32]. Description: competitive inhibition ELISA, full-length P30 coated, 5 ug/mL P30(a) + peptide 1 at x640 the antibody concentration.
In test [33] the target is antibody P30(b) (Fucal Research product Mp-P30-9-AB). As to the kind of experiment: competitive inhibition ELISA, full-length P30 coated, 5 ug/mL P30(b) + peptide 1 at x10 the antibody concentration.
The target is the same in test [34]. As to the kind of experiment: competitive inhibition ELISA, full-length P30 coated, 5 ug/mL P30(b) + peptide 1 at x640 the antibody concentration.
The target of test [35] is antibody P30(a) (Fucal Research product Mp-P30-3-AB). As to the kind of experiment: competitive inhibition ELISA, full-length P30 coated, 5 ug/mL P30(a) + peptide 1 at x320 the antibody concentration.
In test [36] the target is antibody P30(b) (Fucal Research product Mp-P30-9-AB). Description: competitive inhibition ELISA, full-length P30 coated, 5 ug/mL P30(b) + peptide 1 at x160 the antibody concentration.
Test [37] shares this target. Description: immunochromatography competition, 400 ng peptide 1 developed with P30Ag 10 pg/mL, P30(b) label and detection.

Turning to “antibody P30(b) (Fucal Research product Mp-P30-9-AB)”, the Color intensity (mAbs) in test [1] amounted to 31.8 mAbs; in test [2], 40.5 mAbs; in test [3], 13.6 mAbs; in test [4], 8.9 mAbs; in test [5], 18.9 mAbs; in test [7], 159 mAbs. The Color intensity (mAbs) in [9] came out at 79.4 mAbs; in test [10] it was 24.3 mAbs; in test [12], 29.8 mAbs; in test [13], 16.3 mAbs; in test [14], 15.2 mAbs; in [15], 7.9 mAbs. Also, the Color intensity (mAbs) came to 8.9 mAbs in [17] and 6.1 mAbs in [18]. For the same molecule, in test [6], the absorbance at 450 nm after subtracting the blank amounted to 0.061 Abs. In addition, in test [8], the Color intensity after 15 min was 58.2 mAbs. Moreover, the Color intensity (Abs) in [11] and in test [16] was 0.208 Abs in each case.

Take PGMAPRPGMPPHPGMAPR [Peptide 1 (SEQ ID NO: 6: …)]: the Color intensity (Abs) came to 0.237 Abs in [19]; 0.37 Abs in [20]; 0.23 Abs in [21]; 0.232 Abs in test [23]; 0.134 Abs in [24]; 0.17 Abs in test [25]. The Color intensity (Abs) in test [26] amounted to 0.228 Abs; in test [27] it was 0.341 Abs; in test [28] it was 0.322 Abs; in [29], 0.226 Abs; in test [30], 0.24 Abs; in [32] it was 0.12 Abs. For the same molecule, the Color intensity (Abs) stood at 0.256 Abs in [33], 0.225 Abs in [34], 0.132 Abs in test [35] and 0.223 Abs in [36]. The Percentage reduction of color intensity (%) in [20] was 10%; in test [24] it was 67%; in test [25] it was 59%; in [27], 17%; in test [28], 22%; in test [30], 42%. For the same molecule, the Percentage reduction of color intensity (%) amounted to 71% in test [32] and 68% in test [35]. The Color intensity after 15 min in test [22] worked out at 100 mAbs; in test [37], 60.9 mAbs. For the same molecule, the percentage reduction of absorbance in [31] was above 30%.
